Marks after values point to notes of the source that are not given here.
Tests used:
MRSA-M2 [1] = experiment: Rabbit tibial osteomyelitis model: vaccination, MRSA challenge, then vancomycin therapy; conditions: rabbits, 75 μg each antigen per injection
MRSA-M2 [2] = experiment: Rabbit tibial osteomyelitis (biofilm) infection model: vaccination, then intratibial MRSA-M2 challenge; type: in vivo, Staphylococcus aureus
Protocol: Animals were divided at random into groups.
Production of osteomyelitis. […] The infection was allowed to progress for 14 days.
Analysis of vaccine efficacy. Vaccine efficacy was evaluated in three ways.
Among these antigens, autolysin (AtlA) was one of the most immunoreactive. Because of its reported role in biofilm formation (31, 32) and its up-regulation during early biofilm growth (when an immune response could theoretically eradicate the biofilm), autolysin was tested as a vaccine. Purified recombinant glucosaminidase (one of the two protein components of AtlA) was injected into rabbits (three doses of 10 μg each, 10 days apart) and then animals were challenged using a tibial osteomyelitis infection.
Antibodies elicited by a single antigen vaccine may not provide adequate immunological recognition of the biofilm in vivo to enable complete microbial clearance. […] Therefore, the aforementioned antigens were tested as a multi-component vaccine. To this end, animals were vaccinated with 10 μg of each of four antigens: glucosaminidase, SA0688 (an ABC transporter lipoprotein), SA0037 (a conserved hypothetical protein), and SA0486 (a hypothetical lipoprotein), following the same dosing schedule as above. […] As well, vaccinated animals trended to lower CFU counts and an 88% reduction in bacterial loads in the tibia (FIG. 3A—quadrivalent). However, this reduction in bacterial populations was not statistically significant. Two doses of the combined vaccine at 15 μg each per dose were also studied, wherein increasing the prime and boost may lead to a more robust initial immune response when the biofilm is immature (and thus, enable clearance by the immune response).

## CN[C@H](CC(C)C)C(=O)N[C@H]1C(=O)N[C@@H](CC(N)=O)C(=O)N[C@H]2C(=O)N[C@H]3C(=O)N[C@H](C(=O)N[C@H](C(=O)O)c4cc(O)cc(O)c4-c4cc3ccc4O)[C@H](O)c3ccc(c(Cl)c3)Oc3cc2cc(c3O[C@@H]2O[C@H](CO)[C@@H](O)[C@H](O)[C@H]2O[C@H]2C[C@](C)(N)[C@H](O)[C@H](C)O2)Oc2ccc(cc2Cl)[C@H]1O [PBS + vancomycin, vancomycin]
MRSA-M2 [1]; vancomycin 40 mg/kg twice daily for ten days
  Percentage showing clinical signs of infection: 100%
MRSA-M2 [1]; vancomycin 40 mg/kg twice daily for ten days from 14 days after challenge, score 0 to 4+
  Mean radiological score: 2.1

B1: Glucosaminidase: Purified recombinant S. aureus glucosaminidase (SEQ ID NO:1), one of the two protein components of autolysin AtlA (protein, listed as Staphylococcus aureus)
chain: MAKKFNYKLPSMVALTLVGSAVTAHQVQAAETTQDQTTNKNVLDSNKVKATTEQAKAEVKNPTQNISGTQVYQDPAIVQPKAANKTGNAQVNQKVDTTQVNGDTRATQSTTSNNAKPVTKSTNTTAPKTNNNVTSAGYSLVDDEDDNSENQINPELIKSAAKPAALETQYKAAAPKATPVAPKAKTEATPKVTTFSASAQPRSAAAAPKTSLPKYKPQVNSSINDYIRKNNLKAPKIEEDYTSYFPKYAYRNGVGRPEGIVVHDTANDRSTINGEISYMKNNYQNAFVHAFVDGDRIIETAPTDYLSWGVGAVGNPRFINVEIVHTHDYASFARSMNNYADYAATQLQYYGLKPDSAEYDGNGTVWTHYAVSKYLGGTDHADPHGYLRSHNYSYDQLYDLINEKYLIKMGKVAPWGTQSTTTPTTPSKPSTPSKPSTPSTGKLTVAANNGVAQIKPTNSGLYTTVYDKTGKATNEVQKTFAVSKTATLGNQKFYLVQDYNSGNKFGWVKEGDVVYNTAKSPVNVNQSYSIKPGTKLYTVPWGTSKQVAGSVSGSGNQTFKASKQQQIDKSIYLYGSVNGKSGWVSKAYLVDTAKPTPTPTPKPSTPTTNNKLTVSSLNGVAQINAKNNGLFTTVYDKTGKPTKEVQKTFAVTKEASLGGNKFYLVKDYNSPTLIGWVKQGDVIYNNAKSPVNVMQTYTVKPGTKLYSVPWGTYKQEAGAVSGTGNQTFKATKQQQIDKSIYLYGTVNGKSGWISKAYLAVPAAPKKAVAQPKTAVKAYAVTKPQTTQTVSKIAQVKPNNTGIRASVYEKTAKNGAKYADRTFYVTKERAHGNETYVLLNNTSHNIPLGWFNVKDLNVQNLGKEVKTTQKYTVNRSNNGLSMVPWGTKNQVILTGNNIAQGTFNATKQVSVGKDVYLYGTINNRTGWVNSKDLTAPTAVKPTTSAAKDYNYTYVIKNGNGYYYVTPNSDTAKYSLKAFNEQPFAVVKEQVINGQTWYYGKLSNGKLAWIKSTDLAKELIKYNQIGMTLNQVAQIQAGLQYKPQVQRVPGKWTDANFNDVKHAMDTKRLAQDPALKYQFLRLDQPQNISIDKINQFLKGKGVLENQGAAFNKAAQMYGINEVYLISHALLETGNGTSQLAKGADVVNNKVVTNSNTKYHNVFGIAAYDNDPLREGIKYAKQAGWDTVSKAIVGGAKFIGNSYVKAGQNTLYKMRWNPAHPGTHQYATDVDWANINAKIIKGYYDKIGEVGKYFDIPQYK
MRSA-M2 [2]; New Zealand White rabbits, three i.m. doses of 10 μg (each antigen), 10 days apart, 14 days after intratibial MRSA, score 0 to 4+ (Table 2)
  Mean radiological score: 0.37*
MRSA-M2 [2]; rabbits cleared of infection, 4 glucosaminidase, 5 multi-component animals, three doses of 10 μg (each antigen)
  Number cleared: 1
MRSA-M2 [2]; rabbits, three doses of 10 μg (each antigen), non-weight bearing on affected leg, 14 days after MRSA inoculation
  % showing clinical signs of infection: 0%
MRSA-M2 [2]; rabbits, three doses of 10 μg each, 10 days apart
  bacteriological signs of infection compared to PBS-vaccinated controls: did not lead to significant differences
MRSA-M2 [2]; rabbits, three doses of 10 μg, FIG. 1, PBS controls 9.84×10^7
  Mean CFU/grams bone in affected tibias: 3.6×10^7 CFU/grams bone

From patent US20110177111A1, “[…] AGAINST STAPHYLOCOCCUS AUREUS BIOFILMS […] WALL-[…]” (UNIVERSITY OF MARYLAND, BALTIMORE, priority 2008, published 2011)
